This is an account of results in PMC7054835, “MyD88 Death-Domain Oligomerization Determines Myddosome Architecture: Implications for Toll-like Receptor Signaling” (Structure(London, England:1993), 2020).

This series concerns the molecule itself. As to the kind of experiment: AUC; sedimentation velocity (30,000 rev/min) and sedimentation equilibrium (3200 and 4200 rev/min, 250 and 280 nm) of hMyD88^DD alone, 35 uM, 293 K, 20 mM Tris, 20 mM NaCl, pH 8.0, 5% glycerol.

B1: human MyD88 death domain construct (N-terminal death and intermediate domains of hMyD88, 1-151) (domain or fragment, UniProt Q99836 1-151, looked up)
chain: MAAGGPGAGSAAPVSSTSSLPLAALNMRVRRRLSLFLNVRTQVAADWTALAEEMDFEYLEIRQLETQADPTGRLLDAWQGRPGASVGRLLELLTKLGRDDVLLELGPSIEEDCQKYILKQQQEEAEKPLQVAAVDSSVPRTAELAGITTLD
notes: Myeloid differentiation primary response 88 (MyD88), human, residues 1-151: death domain plus a 30-residue segment of the intermediate domain; printed monomer mass 17.5 kDa; Forms open-ended helical filaments of several hundred subunits at 35 uM and above; The model in the map holds 103 residues per subunit and ends at Q121; also called hMyD88^DD; MyD88^DD; source: E. coli BL21 DE3 Rosetta 2, …
As to B1, the binding result is listed as “binds”.
